{"source": "patent US20040023341A1", "about": "(ZymoGenetics, published 2004)", "key": {"[1]": {"biological_target": "IL-TIF protein (SEQ ID NO:3) (human) (UniProt Q9GZX6)", "assay": "cell-based or functional assay"}, "[2]": {"biological_target": "T1, CRF2-4/zcytor11 heterodimeric receptor on BaF3/CRF2-4/zcytor11 cells (human, UniProt Q08334 20-325)", "T1 sequence 1": "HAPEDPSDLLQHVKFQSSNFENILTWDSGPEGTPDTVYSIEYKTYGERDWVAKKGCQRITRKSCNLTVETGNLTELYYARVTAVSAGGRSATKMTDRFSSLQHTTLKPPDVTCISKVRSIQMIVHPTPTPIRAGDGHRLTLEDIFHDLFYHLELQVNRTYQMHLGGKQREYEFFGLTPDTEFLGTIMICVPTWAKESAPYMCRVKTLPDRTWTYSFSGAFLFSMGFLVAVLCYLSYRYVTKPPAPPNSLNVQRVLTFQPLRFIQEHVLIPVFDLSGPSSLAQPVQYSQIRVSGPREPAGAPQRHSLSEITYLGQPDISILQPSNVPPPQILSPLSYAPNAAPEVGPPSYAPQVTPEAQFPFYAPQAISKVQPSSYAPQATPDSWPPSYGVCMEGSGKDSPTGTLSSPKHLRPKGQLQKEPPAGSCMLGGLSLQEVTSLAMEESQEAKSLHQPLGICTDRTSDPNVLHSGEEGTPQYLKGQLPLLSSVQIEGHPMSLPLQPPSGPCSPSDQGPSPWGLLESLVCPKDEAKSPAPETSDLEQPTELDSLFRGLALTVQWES", "T1 sequence 2": "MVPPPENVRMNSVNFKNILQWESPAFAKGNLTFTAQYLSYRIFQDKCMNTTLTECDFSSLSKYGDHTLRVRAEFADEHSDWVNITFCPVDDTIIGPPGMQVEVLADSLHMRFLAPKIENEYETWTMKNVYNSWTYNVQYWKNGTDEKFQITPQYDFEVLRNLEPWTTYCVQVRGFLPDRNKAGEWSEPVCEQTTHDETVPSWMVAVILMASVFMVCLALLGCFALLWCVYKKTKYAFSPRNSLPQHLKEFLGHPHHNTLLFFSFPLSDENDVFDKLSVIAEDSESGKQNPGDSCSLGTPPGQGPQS", "assay": "cell-based or functional assay"}}, "data": [{"molecule": "CRF2-4/zcytor11-Fc4 soluble heterodimer receptor (Fc fusion)", "values": [{"measurement": "concentration at which inhibition of IL-TIF-induced proliferation was barely detectable", "setting": "[1]", "result": 63, "unit": "ng/mL"}, {"measurement": "concentration giving complete inhibition of IL-TIF-induced proliferation", "setting": "[1]", "result": 8, "unit": "µg/mL"}, {"measurement": "concentration giving partial inhibition of IL-TIF-induced proliferation", "setting": "[1]", "result": "0.125 to 4", "unit": "µg/mL"}]}, {"molecule": "IL-TIF-CEE polypeptide purified from BHK 570 cells (ligand) APISSHCRLDKSNFQQPYITNRTFMLAKEASLADNNTDVRLIGEKLFHGVSMSERCYLMKQVLNFTLEEVLFPQSDRFQPYMQEVVPFLARLSNRLSTCHIEGDDLHIQRNVQKLKDTVKKLGESGEIKAIGELDLLFMSLRNACIEYMPME", "values": [{"measurement": "proliferation of BaF3/CRF2-4/zcytor11 cells (Alamar Blue), fold induction at 0.06 ng/ml IL-TIF-CEE", "setting": "[2]", "result": 2, "unit": "fold"}, {"measurement": "proliferation of BaF3/CRF2-4/zcytor11 cells (Alamar Blue), fold over background at 50 ng/ml IL-TIF-CEE", "setting": "[2]", "result": "~15", "unit": "fold"}]}, {"molecule": "IL-TIF protein (SEQ ID NO:3) (ligand) APISSHCRLDKSNFQQPYITNRTFMLAKEASLADNNTDVRLIGEKLFHGVSMSERCYLMKQVLNFTLEEVLFPQSDRFQPYMQEVVPFLARLSNRLSTCHIEGDDLHIQRNVQKLKDTVKKLGESGEIKAIGELDLLFMSLRNACI", "values": [{"measurement": "proliferation of BaF3/CRF2-4/zcytor11 cells (Alamar Blue) at 100 pg/ml IL-TIF", "setting": "[2]", "result": 13, "unit": "fold"}]}]}
